# In the supplement of paper PMC5998384:
# Columns and labels:
# HeLa Kyoto [1] = experiment: solubility in G1/S (NP-40 vs SDS abundance) (log2 ratio); higher = more soluble; settings: cell cycle stage: G1/S
# HeLa Kyoto [2] = experiment: melting temperature (median over replicates), in situ; higher = more thermally stable
# HeLa Kyoto [3] = experiment: solubility change mitosis vs G1/S (difference of NP-40 vs SDS log2 ratios) (log2 ratio difference); higher = more soluble in mitosis
# HeLa Kyoto [4] = experiment: thermal stability score vs G1/S (z-score of summed log2 fold changes over temperatures); higher = more thermally stable than in G1/S
# [5] = cell cycle stage: early G1 (4.5 h after nocodazole release)
# 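Throughout, for melting temperature (median over replicates), in situ: HeLa Kyoto cells synchronized by double thymidine or nocodazole block, proteins quantified by TMT10plex mass spectrometry, three independent biological replicates.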
# 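Throughout, for solubility change mitosis vs G1/S (difference of NP-40 vs SDS log2 ratios): synchronized HeLa Kyoto cells (double thymidine block for G1/S, nocodazole release for mitosis), protein amounts in NP-40 versus SDS lysates quantified by mass spectrometry, three biological replicates.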
# 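Throughout, for solubility in G1/S (NP-40 vs SDS abundance): HeLa Kyoto cells arrested at G1/S by double thymidine block, proteins quantified by TMT10plex mass spectrometry in mild NP-40 versus SDS extracts, three biological replicates.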
# 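Throughout, for thermal stability score vs G1/S (z-score of summed log2 fold changes over temperatures): synchronized HeLa Kyoto cells, proteins quantified by TMT10plex mass spectrometry, three biological replicates, mitosis taken 0.5 h after nocodazole release, G1/S directly after double thymidine block.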
Substance,solubility in G1/S (log2) (HeLa Kyoto [1]),melting temperature (HeLa Kyoto [2]; cell cycle stage: G1/S),melting temperature (HeLa Kyoto [2]; cell cycle stage: mitosis),solubility change mitosis (log2) (HeLa Kyoto [3]),thermal stability score (HeLa Kyoto [4]; [5]),thermal stability score (HeLa Kyoto [4]; cell cycle stage: mitosis)
MAALTTLFKYIDENQDRYIKKLAKWVAIQSVSAWPEKRGEIRRMMEVAAADVKQLGGSVELVDIGKQKLPDGSEIPLPPILLGRLGSDPQKKTVCIYGHLDVQPAALEDGWDSEPFTLVERDGKLYGRGSTDDKGPVAGWINALEAYQKTGQEIPVNVRFCLEGMEESGSEGLDELIFARKDTFFKDVDYVCISDNYWLGKKKPCITYGLRGICYFFIEVECSNKDLHSGVYGGSVHEAMTDLILLMGSLVDKRGNILIPGINEAVAAVTEEEHKLYDDIDFDIEEFAKDVGAQILLHSHKKDILMHRWRYPSLSLHGIEGAFSGSGAKTVIPRKVVGKFSIRLVPNMTPEVVGEQVTSYLTKKFAELRSPNEFKVYMGHGGKPWVSDFSHPHYLAGRRAMKTVFGVEPDLTREGGSIPVTLTFQEATGKNVMLLPVGSADDGAHSQNEKLNRYNYIEGTKMLAAYLYEVSQLKD [CNDP2],0.253,54.4 °C,53.4 °C,-0.148,-6.23,-11.6
MFRLNSLSALAELAVGSRWYHGGSQPIQIRRRLMMVAFLGASAVTASTGLLWKRAHAESPPCVDNLKSDIGDKGKNKDEGDVCNHEKKTADLAPHPEEKKKKRSGFRDRKVMEYENRIRAYSTPDKIFRYFATLKVISEPGEAEVFMTPEDFVRSITPNEKQPEHLGLDQYIIKRFDGKKISQEREKFADEGSIFYTLGECGLISFSDYIFLTTVLSTPQRNFEIAFKMFDLNGDGEVDMEEFEQVQSIIRSQTSMGMRHRDRPTTGNTLKSGLCSALTTYFFGADLKGKLTIKNFLEFQRKLQHDVLKLEFERHDPVDGRITERQFGGMLLAYSGVQSKKLTAMQRQLKKHFKEGKGLTFQEVENFFTFLKNINDVDTALSFYHMAGASLDKVTMQQVARTVAKVELSDHVCDVVFALFDCDGNGELSNKEFVSIMKQRLMRGLEKPKDMGFTRLMQAMWKCAQETAWDFALPKQ [MICU1],-0.299,52.2 °C,51.3 °C,-0.00566,1.14,1.13
MPVKGGTKCIKYLLFGFNFIFWLAGIAVLAIGLWLRFDSQTKSIFEQETNNNNSSFYTGVYILIGAGALMMLVGFLGCCGAVQESQCMLGLFFGFLLVIFAIEIAAAIWGYSHKDEVIKEVQEFYKDTYNKLKTKDEPQRETLKAIHYALNCCGLAGGVEQFISDICPKKDVLETFTVKSCPDAIKEVFDNKFHIIGAVGIGIAVVMIFGMIFSMILCCAIRRNREMV [CD9],-0.0106,62.4 °C,60.4 °C,-0.149,2.82,0.357
MYO5A,-0.679,51.1 °C,49.6 °C,0.167,0.0646,-0.152
MWRLVPPKLGRLSRSLKLAALGSLLVLMVLHSPSLLASWQRNELTDRRFLQLNKCPACFGTSWCRRFLNGQVVFEAWGRLRLLDFLNVKNVYFAQYGEPREGGRRRVVLKRLGSQRELAQLDQSICKRATGRPRCDLLQAMPRTEFARLNGDVRLLTPEAVEGWSDLVHCPSQRLLDRLVRRYAETKDSGSFLLRNLKDSERMQLLLTLAFNPEPLVLQSFPSDEGWPFAKYLGACGRMVAVNYVGEELWSYFNAPWEKRVDLAWQLMEIAEQLTNNDFEFALYLLDVSFDNFAVGPRDGKVIIVDAENVLVADKRLIRQNKPENWDVWYESKFDDCDKEACLSFSKEILCARATVDHNYYAVCQNLLSRHATWRGTSGGLLHDPPSEIAKDGRLEALLDECANPKKRYGRFQAAKELREYLAQLSNNVR [C3ORF58],0.0343,53 °C,52.3 °C,-0.109,-0.149,-0.787
MSTARTENPVIMGLSSQNGQLRGPVKPTGGPGGGGTQTQQQMNQLKNTNTINNGTQQQAQSMTTTIKPGDDWKKTLKLPPKDLRIKTSDVTSTKGNEFEDYCLKRELLMGIFEMGWEKPSPIQEESIPIALSGRDILARAKNGTGKSGAYLIPLLERLDLKKDNIQAMVIVPTRELALQVSQICIQVSKHMGGAKVMATTGGTNLRDDIMRLDDTVHVVIATPGRILDLIKKGVAKVDHVQMIVLDEADKLLSQDFVQIMEDIILTLPKNRQILLYSATFPLSVQKFMNSHLQKPYEINLMEELTLKGVTQYYAYVTERQKVHCLNTLFSRLQINQSIIFCNSSQRVELLAKKISQLGYSCFYIHAKMRQEHRNRVFHDFRNGLCRNLVCTDLFTRGIDIQAVNVVINFDFPKLAETYLHRIGRSGRFGHLGLAINLITYDDRFNLKSIEEQLGTEIKPIPSNIDKSLYVAEYHSEPVEDEKP [DDX6],-0.136,51.5 °C,51 °C,0.0947,0.486,-0.288
MQGSSLWLSLTFRSARVLSRARFFEWQSPGLPNTAAMENGTGPYGEERPREVQETTVTEGAAKIAFPSANEVFYNPVQEFNRDLTCAVITEFARIQLGAKGIQIKVPGEKDTQKVVVDLSEQEEEKVELKESENLASGDQPRTAAVGEICEEGLHVLEGLAASGLRSIRFALEVPGLRSVVANDASTRAVDLIRRNVQLNDVAHLVQPSQADARMLMYQHQRVSERFDVIDLDPYGSPATFLDAAVQAVSEGGLLCVTCTDMAVLAGNSGETCYSKYGAMALKSRACHEMALRIVLHSLDLRANCYQRFVVPLLSISADFYVRVFVRVFTGQAKVKASASKQALVFQCVGCGAFHLQRLGKASGVPSGRAKFSAACGPPVTPECEHCGQRHQLGGPMWAEPIHDLDFVGRVLEAVSANPGRFHTSERIRGVLSVITEELPDVPLYYTLDQLSSTIHCNTPSLLQLRSALLHADFRVSLSHACKNAVKTDAPASALWDIMRCWEKECPVKRERLSETSPAFRILSVEPRLQANFTIREDANPSSRQRGLKRFQANPEANWGPRPRARPGGKAADEAMEERRRLLQNKRKEPPEDVAQRAARLKTFPCKRFKEGTCQRGDQCCYSHSPPTPRVSADAAPDCPETSNQTPPGPGAAAGPGID [TRMT1],-0.0405,56.3 °C,56.7 °C,-0.0538,-0.711,-1.01
MPLLTQQIQDEDDQYSLVASLDNVRNLSTILKAIHFREHATCFATKNGIKVTVENAKCVQANAFIQAGIFQEFKVQEESVTFRINLTVLLDCLSIFGSSPMPGTLTALRMCYQGYGYPLMLFLEEGGVVTVCKINTQEPEETLDFDFCSTNVINKIILQSEGLREAFSELDMTSEVLQITMSPDKPYFRLSTFGNAGSSHLDYPKDSDLMEAFHCNQTQVNRYKISLLKPSTKALVLSCKVSIRTDNRGFLSLQYMIRNEDGQICFVEYYCCPDEEVPESES [RAD1],-0.0871,51.4 °C,51.2 °C,-0.225,2.13,0.628
MHKHQHCCKCPECYEVTRLAALRRLEPPGYGDWQVPDPYGPGGGNGASAGYGGYSSQTLPSQAGATPTPRTKAKLIPTGRDVGPVPPKPVPGKSTPKLNGSGPSWWPECTCTNRDWYEQVNGSDGMFKYEEIVLERGNSGLGFSIAGGIDNPHVPDDPGIFITKIIPGGAAAMDGRLGVNDCVLRVNEVDVSEVVHSRAVEALKEAGPVVRLVVRRRQPPPETIMEVNLLKGPKGLGFSIAGGIGNQHIPGDNSIYITKIIEGGAAQKDGRLQIGDRLLAVNNTNLQDVRHEEAVASLKNTSDMVYLKVAKPGSLHLNDMYAPPDYASTFTALADNHISHNSSLGYLGAVESKVSYPAPPQVPPTRYSPIPRHMLAEEDFTREPRKIILHKGSTGLGFNIVGGEDGEGIFVSFILAGGPADLSGELRRGDRILSVNGVNLRNATHEQAAAALKRAGQSVTIVAQYRPEEYSRFESKIHDLREQMMNSSMSSGSGSLRTSEKRSLYVRALFDYDRTRDSCLPSQGLSFSYGDILHVINASDDEWWQARLVTPHGESEQIGVIPSKKRVEKKERARLKTVKFHARTGMIESNRDFPGLSDDYYGAKNLKGQEDAILSYEPVTRQEIHYARPVIILGPMKDRVNDDLISEFPHKFGSCVPHTTRPRRDNEVDGQDYHFVVSREQMEKDIQDNKFIEAGQFNDNLYGTSIQSVRAVAERGKHCILDVSGNAIKRLQQAQLYPIAIFIKPKSIEALMEMNRRQTYEQANKIYDKAMKLEQEFGEYFTAIVQGDSLEEIYNKIKQIIEDQSGHYIWVPSPEKL [DLG3],0.141,52.9 °C,53.1 °C,-0.139,-0.454,-1.05
TMED2,0.169,55.5 °C,55.3 °C,-0.171,1.23,2.29
